Measured values taken from US20250188151A1, “C-JUN ANTAGONIST PEPTIDES” (The University of Bath, priority 2022, published 2025).

What was measured:
cJun bZIP [1] = molecular target: T1, cJun bZIP (human, UniProt P05412 252-308, limits assumed); assay: cell-based or functional assay
T1 chain: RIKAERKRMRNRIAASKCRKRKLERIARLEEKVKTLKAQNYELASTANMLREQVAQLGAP

cFos bZIP domain = molecular target: T2, cFos bZIP domain (Homo sapiens, UniProt P01100, S177Y); assay: CD spectra/thermal denaturation with cFos bZIP (off-target); format: binding; settings: CD spectra and thermal denaturation
T2 construct: His-SUMO (N, cleaved yes); made in house; host or cells: E. coli
T2 sequence (P01100 with tags, fused parts or gaps S177Y): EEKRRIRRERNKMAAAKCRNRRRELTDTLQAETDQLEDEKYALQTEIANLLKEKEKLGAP
Protocol: (FIG. 11D). Although this represented a negligible 1.3° C. increase in heterodimer Tm, there was crucially a much larger ΔTm for HingeW/cJun relative to the component peptide denaturation profiles than for A-FosW/cJun. The low thermal stability of the HingeW homodimer results in no observable lower baseline prior to the transition such that the Tm for this component, and thus the average, cannot be determined. However, this ΔTm can be estimated to be ˜40° C., compared to 27.5° C. for A-FosW/cJun. The TBS screen has therefore led to an optimised reduction in homodimersation more so than increased heterodimerisation with the target. This ensures that more antagonist is available as free monomer in solution and therefore in a target-dimerisation competent state. Another difference between the two denaturation profiles is the presence of a double transition for the A-FosW/cJun heterodimer, with a smaller initial transition occurring at ˜30° C.

cJun bZIP [2] = molecular target: T1, cJun bZIP
cJun bZIP [3] = molecular target: T1, cJun bZIP; assay: ITC
cJun bZIP [4] = molecular target: T1, cJun bZIP; assay: CD spectra at 20 °C
cFos bZIP = molecular target: T3, cFos bZIP (human, UniProt P01100 137-193); assay: CD spectra 190-260 nm, equimolar mixture compared with the average of the 10 µM component spectra
T3 construct: Purified from a His-SUMO fusion with the tag cleaved off; also called cFos bZIP domain
T3 chain: T2 sequence (P01100 with tags, fused parts or gaps S177Y)

cJun bZIP [5] = molecular target: T1, cJun bZIP; assay: ITC (PEAQ-ITC), peptide injected into cJun, one site model
[6] = molecular target: T4, cJun bZIP/TRE DNA interaction (transcriptional block of TRE-mDHFR) (Homo sapiens, UniProt P05412, S292Y); assay: Transcription Block Survival (TBS) assay: colony counting and growth competition in E. coli; format: cell-based
T4 construct: expressed in transfected cells; host or cells: E. coli BL21 Gold carrying pES300d-TRE-mDHFR and pES230d-cJun bZIP
Excerpt: Library Construction and TBS Assay: Library inserts were produced using PCR fill-in reactions from synthesised primers (Sigma) with degenerate codons at the desired positions to produce the correct residue options. The library was subcloned using SacI and AscI sites into the pET24a plasmid containing A-FosW. The primers used were cJun-Hinge-Lib-F: 5′-[…] TATGCC-3′ (SEQ ID NO: 49) and cJun-Hinge-Lib_R: 5′-[…] GTTC-3′ (SEQ ID NO: 50). The library DNA was transformed into NEB 10-beta electrocompetent E. coli cells. The following equation was utilised to determine library coverage by the number of single colonies: E=100×(1−1/n)^m where E is the percentage of the library missing, m is the number of colonies collected and n is the library size. […] Library DNA quality was assessed by sequencing both the DNA pool and a number of single colonies to show degenerate codons in the correct positions in the pool and to show a diversity of library members from single colonies. The pool of library DNA was transformed into BL21 Gold cells already containing pES300d-TRE-mDHFR and pES230d-cJun bZIP.
Selective pressure is applied by growing the bacteria in M9 minimal media with TMP (2-4 μM) alongside ampicillin, kanamycin and chloramphenicol to maintain the required plasmids, and IPTG (1 mM) to induce protein expression. The library transformants were first plated out onto selective agar plates (2 μM TMP) and grown at 37° C. for 72-96 h. Optimisation experiments (FIG. 5) indicate that 4 μM TMP is optimum for selection however a lower stringency is used initially before selection is increased in later steps. Colonies from this first round of selection were pooled and serially grown in liquid culture at starting OD600 of 0.05 and grown at 37° C. with shaking at 200 rpm until the OD600 reached 0.6. TMP concentration was 2 μM in the first liquid culture passage before it was increased to the optimum 4 μM in subsequent passages. […] At each passage step, a sample of the culture was plated on LB agar (supplemented with antibiotics to maintain plasmids) to select and sequence individual colonies, and a DNA pool was also sequenced. This allows the occurrence of library members to be monitored as winner sequences are selected for. Assay Validation experiments utilised a modified assay methodology whereby overnight cultures from glycerol stocks of the Control Strains (Table 2) were diluted to OD600=0.5 and 50 μL was plated on a selective M9 minimal medium agar plate.
Transcription block survival (TBS) is an intracellular assay that utilises cell survival as a readout. […] This enzyme is absolutely essential for survival since it is required for the production of purines needed for DNA and amino acid synthesis. […]. We produced a mDHFR gene (FIGS. 2 and 3) by rational design to introduce 15 TRE sites into the coding DNA sequence to allow a robust cJun transcriptional block whilst minimising alteration to the expressed protein (TRE-mDHFR). In particular, the resulting TRE-mDHFR construct was produced via two silent and thirteen conservative mutations. […] The accessible surface areas of all other amino acid residues were calculated using the ‘Accessible Surface Area and Accessibility Calculation for Protein’ tool (http://cib.cf.ocha.ac.jp/bitool/ASA/). […]

B1: HingeW (peptide)
peptide: MASLEQRAEELARENEELEKEAEELVVEEDVLEEEIEQLEERNYALRKEIEDLQKQLEKLGAPHHHHHH
notes: Recombinant, capped (MAS at the N-terminus, GAP at the C-terminus) and C-terminally 6xHis-tagged, 69 amino acids; also called peptide 1
IC50, EMSA of free TRE DNA band (cJun bZIP [1]): 9.6 µM
TBS assay colony numbers relative to A-FosW (cJun bZIP [1]): 10%
TBS assay colony numbers relative to TRE-mDHFR alone (cJun bZIP [1]): 66%
interaction with cFos bZIP (cFos bZIP domain): no interaction
increase in heterodimer Tm against A-FosW/cJun (cJun bZIP [2]): 1.3 ° C.
fold increase in binding affinity against A-FosW (cJun bZIP [3]): 6 fold
increase in α-helical content relative to the average of the two component spectra (cJun bZIP [4]): 82%
binding result (cFos bZIP): no binding (tested: 5 µM of each peptide)
-TΔS (cJun bZIP [5]): 17.6 kcal/mol
Stoichiometry, n (cJun bZIP [5]): 0.93
ΔG (cJun bZIP [5]): -13.4 kcal/mol
ΔH (cJun bZIP [5]): -31 kcal/mol
direct competition in liquid culture, sequence observed by DNA sequencing ([6]; equal numbers of TBS cells with A-FosW or HingeW, after three passages): only HingeW was observed
effect on TRE-mDHFR transcriptional block / colony numbers ([6]; vs transcriptionally blocked cells (TRE-mDHFR + cJun bZIP)): restore cell survival
